From publication PMC3462610 (Biochemical Journal, 2011) come the findings set out here.

For one assay, the system named is GST–MKK7β1. The assay can be described thus: GST pull-down of WDR62 fragments with GST–MKK7β1. The settings on record: HEK-293T. It counts as binding, human.
Another assay deals with HA–JNK1. The assay can be described thus: GST pull-down with WDR62 1018-C–GST constructs. It counts as binding, human. The note with it: HEK-293T; for association with HA–JNK1: anti-HA/anti-pJNK.
Assay [1] relates to HA–JNK2. The assay can be described thus: GST pull-down with WDR62 1018-C–GST constructs. The settings on record: HEK-293T; for association with HA–JNK2: anti-HA/anti-pJNK. It counts as binding, human.
The subject of another assay is His–JNK2. As to the kind of experiment: In vitro protein-binding assay. The settings on record: purified proteins, 2 h at 37°C, amylose resin. Further details: species or system human.
In another assay the test system is His–MKK7β1. As to the kind of experiment: In vitro protein-binding assay. Also noted: species or system human. The note with it: purified proteins, 2 h at 37°C, amylose resin.
The subject of another assay is WDR62. The assay can be described thus: GST pull-down of MKK4 with WDR62 fragments. It counts as binding, human. The note with it: HEK-293T, compared with MKK7–WDR62.
Assay [2] relates to HA–JNK2. As to the kind of experiment: Co-immunoprecipitation of HA–JNK2 with Myc-tagged WDR62 constructs, HEK-293T. It counts as binding, human. The note with it: quantified, means±S.D., three independent experiments.

B1: Myc-1212-C: Myc-tagged WDR62 aa 1212–1523 (protein)
chain: PSTCSYMEATASSRARISRSISLGDSEGPIVATLAQPLRRPSSVGELASLGQELQAITTATTPSLDSEGQEPALRSWGNHEARANLRLTLSSACDGLLQPPVDTQPGVTVPAVSFPAPSPVEESALRLHGSAFRPSLPAPESPGLPAHPSNPQLPEARPGIPGGTASLLEPTSGALGLLQGSPARWSEPWVPVEALPPSPLELSRVGNILHRLQTTFQEALDLYRVLVSSGQVDTGQQQARTELVSTFLWIHSQLEAECLVGTSVAPAQALPSPGPPSPPTLYPLASPDLQALLEHYSELLVQAVRRKARGH
As for B1, in the assay with GST–MKK7β1, the “association with MKK7β1, in words” value is on record as “efficiently associated”.

B2: 1018-C–GST: wild-type WDR62-1018-C fused to GST (protein)
chain: RFATSLPHFPGCAGPTEDELSLPEGPSVPSSSLPQTPEQEKFLRHHFETLTESPCRELFPAALGDVEASEAEDHFFNPRLSISTQFLSSLQKASRFTHTFPPRATQCLVKSPEVKLMDRGGSQPRAGTGYASPDRTHVLAAGKAEETLEAWRPPPPCLTSLASCVPASSVLPTDRNLPTPTSAPTPGLAQGVHAPSTCSYMEATASSRARISRSISLGDSEGPIVATLAQPLRRPSSVGELASLGQELQAITTATTPSLDSEGQEPALRSWGNHEARANLRLTLSSACDGLLQPPVDTQPGVTVPAVSFPAPSPVEESALRLHGSAFRPSLPAPESPGLPAHPSNPQLPEARPGIPGGTASLLEPTSGALGLLQGSPARWSEPWVPVEALPPSPLELSRVGNILHRLQTTFQEALDLYRVLVSSGQVDTGQQQARTELVSTFLWIHSQLEAECLVGTSVAPAQALPSPGPPSPPTLYPLASPDLQALLEHYSELLVQAVRRKARGH
Regarding B2, the “association with HA–JNK1” value in the assay on HA–JNK1 is on record as “efficiently precipitated”. In addition, in the assay on HA–JNK2 [1], the “association with HA–JNK2” value was “efficiently precipitated”.

B3: MBP-1018-C: MBP fused to human WDR62 1018-C fragment (protein)
chain: RFATSLPHFPGCAGPTEDELSLPEGPSVPSSSLPQTPEQEKFLRHHFETLTESPCRELFPAALGDVEASEAEDHFFNPRLSISTQFLSSLQKASRFTHTFPPRATQCLVKSPEVKLMDRGGSQPRAGTGYASPDRTHVLAAGKAEETLEAWRPPPPCLTSLASCVPASSVLPTDRNLPTPTSAPTPGLAQGVHAPSTCSYMEATASSRARISRSISLGDSEGPIVATLAQPLRRPSSVGELASLGQELQAITTATTPSLDSEGQEPALRSWGNHEARANLRLTLSSACDGLLQPPVDTQPGVTVPAVSFPAPSPVEESALRLHGSAFRPSLPAPESPGLPAHPSNPQLPEARPGIPGGTASLLEPTSGALGLLQGSPARWSEPWVPVEALPPSPLELSRVGNILHRLQTTFQEALDLYRVLVSSGQVDTGQQQARTELVSTFLWIHSQLEAECLVGTSVAPAQALPSPGPPSPPTLYPLASPDLQALLEHYSELLVQAVRRKARGH
As to B3, in the assay on His–JNK2, the “precipitation of His–JNK2” value is “efficiently precipitated His–JNK2”. Also, in the assay on His–MKK7β1, the “precipitation of His–MKK7β1” value is recorded as “efficiently precipitated”.

B4: Myc-1018-1284: Myc-tagged WDR62 aa 1018–1284 (protein)
chain: RFATSLPHFPGCAGPTEDELSLPEGPSVPSSSLPQTPEQEKFLRHHFETLTESPCRELFPAALGDVEASEAEDHFFNPRLSISTQFLSSLQKASRFTHTFPPRATQCLVKSPEVKLMDRGGSQPRAGTGYASPDRTHVLAAGKAEETLEAWRPPPPCLTSLASCVPASSVLPTDRNLPTPTSAPTPGLAQGVHAPSTCSYMEATASSRARISRSISLGDSEGPIVATLAQPLRRPSSVGELASLGQELQAITTATTPSLDSEGQEPA
Turning to B4, the “association with MKK7β1, in words” value in the assay on GST–MKK7β1 is “efficiently associated”.

B5: MKK4: HA-tagged human MKK4 (protein)
chain: MAAPSPSGGGGSGGGSGSGTPGPVGSPAPGHPAVSSMQGKRKALKLNFANPPFKSTARFTLNPNPTGVQNPHIERLRTHSIESSGKLKISPEQHWDFTAEDLKDLGEIGRGAYGSVNKMVHKPSGQIMAVKRIRSTVDEKEQKQLLMDLDVVMRSSDCPYIVQFYGALFREGDCWICMELMSTSFDKFYKYVYSVLDDVIPEEILGKITLATVKALNHLKENLKIIHRDIKPSNILLDRSGNIKLCDFGISGQLVDSIAKTRDAGCRPYMAPERIDPSASRQGYDVRSDVWSLGITLYELATGRFPYPKWNSVFDQLTQVVKGDPPQLSNSEEREFSPSFINFVNLCLTKDESKRPKYKELLKHPFILMYEERAVEVACYVCKILDQMPATPSSPMYVD
Take B5: the “MKK4–WDR62 interaction” value in the assay with WDR62 was “weaker than the MKK7–WDR62 interaction”.

B6: 1018-CΔD–GST: WDR62-1018-C lacking the D domain fused to GST (protein)
chain: RFATSLPHFPGCAGPTEDELSLPEGPSVPSSSLPQTPEQEKFLRHHFETLTESPCRELFPAALGDVEASEAEDHFFNPRLSISTQFLSSLQKASRFTHTFPPRATQCLVKSPEVKLMDRGGSQPRAGTGYASPDRTHVLAAGKAEETLEAWRPPPPCLTSLASCVPASSVLPTDRNLPTPTSAPTPGLAQGVHAPSTCSYMEATASSRARISRSISLGDSEGPIVATLAQPLRRPSSVGELASLGQELQAITTATTPSLDSEGQEPALRSWGNHEASSACDGLLQPPVDTQPGVTVPAVSFPAPSPVEESALRLHGSAFRPSLPAPESPGLPAHPSNPQLPEARPGIPGGTASLLEPTSGALGLLQGSPARWSEPWVPVEALPPSPLELSRVGNILHRLQTTFQEALDLYRVLVSSGQVDTGQQQARTELVSTFLWIHSQLEAECLVGTSVAPAQALPSPGPPSPPTLYPLASPDLQALLEHYSELLVQAVRRKARGH
As for B6, in the assay on HA–JNK1, the “association with HA–JNK1” value is given as “relatively weak interaction”. In addition, in the assay with HA–JNK1 (anti-pJNK), the pJNK1 in precipitate result is “no pJNK1/2 was detected”. Further, the “association with HA–JNK2” value in the assay on HA–JNK2 [1] is on record as “relatively weak interaction”. For the same molecule, the pJNK2 in precipitate entry with HA–JNK2 [1] (anti-pJNK) is reported as “no pJNK1/2 was detected”.

B7: Myc-1018-CΔD (protein)
chain: RFATSLPHFPGCAGPTEDELSLPEGPSVPSSSLPQTPEQEKFLRHHFETLTESPCRELFPAALGDVEASEAEDHFFNPRLSISTQFLSSLQKASRFTHTFPPRATQCLVKSPEVKLMDRGGSQPRAGTGYASPDRTHVLAAGKAEETLEAWRPPPPCLTSLASCVPASSVLPTDRNLPTPTSAPTPGLAQGVHAPSTCSYMEATASSRARISRSISLGDSEGPIVATLAQPLRRPSSVGELASLGQELQAITTATTPSLDSEGQEPALRSWGNHEASSACDGLLQPPVDTQPGVTVPAVSFPAPSPVEESALRLHGSAFRPSLPAPESPGLPAHPSNPQLPEARPGIPGGTASLLEPTSGALGLLQGSPARWSEPWVPVEALPPSPLELSRVGNILHRLQTTFQEALDLYRVLVSSGQVDTGQQQARTELVSTFLWIHSQLEAECLVGTSVAPAQALPSPGPPSPPTLYPLASPDLQALLEHYSELLVQAVRRKARGH
Take B7: the “association with MKK7β1, in words” value in the assay with GST–MKK7β1 is on record as “efficiently precipitated with GST–MKK7β1”.

B8: Myc-N-1284: Myc-tagged WDR62 aa 1–1284 (protein)
chain: MAAVGSGGYARNDAGEKLPSVMAGVPARRGQSSPPPAPPICLRRRTRLSTASEETVQNRVSLEKVLGITAQNSSGLTCDPGTGHVAYLAGCVVVILDPKENKQQHIFNTARKSLSALAFSPDGKYIVTGENGHRPAVRIWDVEEKNQVAEMLGHKYGVACVAFSPNMKHIVSMGYQHDMVLNVWDWKKDIVVASNKVSCRVIALSFSEDSSYFVTVGNRHVRFWFLEVSTETKVTSTVPLVGRSGILGELHNNIFCGVACGRGRMAGSTFCVSYSGLLCQFNEKRVLEKWINLKVSLSSCLCVSQELIFCGCTDGIVRIFQAHSLHYLANLPKPHYLGVDVAQGLEPSFLFHRKAEAVYPDTVALTFDPIHQWLSCVYKDHSIYIWDVKDINRVGKVWSELFHSSYVWNVEVYPEFEDQRACLPSGSFLTCSSDNTIRFWNLDSSPDSHWQKNIFSNTLLKVVYVENDIQHLQDMSHFPDRGSENGTPMDVKAGVRVMQVSPDGQHLASGDRSGNLRIHELHFMDELVKVEAHDAEVLCLEYSKPETGLTLLASASRDRLIHVLNVEKNYNLEQTLDDHSSSITAIKFAGNRDIQMISCGADKSIYFRSAQQGSDGLHFVRTHHVAEKTTLYDMDIDITQKYVAVACQDRNVRVYNTVNGKQKKCYKGSQGDEGSLLKVHVDPSGTFLATSCSDKSISVIDFYSGECIAKMFGHSEIITSMKFTYDCHHLITVSGDSCVFIWHLGPEITNCMKQHLLEIDHRQQQQHTNDKKRSGHPRQDTYVSTPSEIHSLSPGEQTEDDLEEECEPEEMLKTPSKDSLDPDPRCLLTNGKLPLWAKRLLGDDDVADGLAFHAKRSYQPHGRWAERAGQEPLKTILDAQDLDCYFTPMKPESLENSILDSLEPQSLASLLSESESPQEAGRGHPSFLPQQKESSEASELILYSLEAEVTVTGTDSQYCRKEVEAGPGDQQGDSYLRVSSDSPKDQSPPEDSGESEADLECSFAAIHSPAPPPDPAPRFATSLPHFPGCAGPTEDELSLPEGPSVPSSSLPQTPEQEKFLRHHFETLTESPCRELFPAALGDVEASEAEDHFFNPRLSISTQFLSSLQKASRFTHTFPPRATQCLVKSPEVKLMDRGGSQPRAGTGYASPDRTHVLAAGKAEETLEAWRPPPPCLTSLASCVPASSVLPTDRNLPTPTSAPTPGLAQGVHAPSTCSYMEATASSRARISRSISLGDSEGPIVATLAQPLRRPSSVGELASLGQELQAITTATTPSLDSEGQEPA
B8: the “reduction of precipitated JNK2 as compared with CS2 and CS5 full-length proteins” value in the assay on HA–JNK2 [2] was 7 -fold.

B9: Myc-1232-C: Myc-tagged WDR62 aa 1232–1523 (protein)
chain: ISLGDSEGPIVATLAQPLRRPSSVGELASLGQELQAITTATTPSLDSEGQEPALRSWGNHEARANLRLTLSSACDGLLQPPVDTQPGVTVPAVSFPAPSPVEESALRLHGSAFRPSLPAPESPGLPAHPSNPQLPEARPGIPGGTASLLEPTSGALGLLQGSPARWSEPWVPVEALPPSPLELSRVGNILHRLQTTFQEALDLYRVLVSSGQVDTGQQQARTELVSTFLWIHSQLEAECLVGTSVAPAQALPSPGPPSPPTLYPLASPDLQALLEHYSELLVQAVRRKARGH
With B9, the “association with MKK7β1, in words” value with GST–MKK7β1 is “but not Myc-1232-C”.
